Broadly, the Kd is the equilibrium constant for the complex coming apart. A low value points to tighter binding. The term IC50 denotes the concentration at which inhibition is half-maximal. High values mean weaker potency in that assay, low ones greater potency in that assay.

In paper PMC3589475, “Large-Scale Functional Purification of Recombinant HIV-1 Capsid” (PLoS ONE, 2013) one finds Kd and IC50 data, which are given here for two molecules.

Test [1] addresses T1, wild-type HIV-1 capsid protein (WT CA) (HIV-1 (pLAI.2), UniProt P03348 133-363, biotin (EZ-link Sulfo-NHS-LC-LC-biotin, 1 biotin per molecule) in the SPR only).
T1 construct: HIV-1 capsid protein (CA), the 231 residues of wild-type CA amplified from the infectious HIV-1 cDNA plasmid pLAI.2; The 5' primer added a codon for an N-terminal methionine; untagged (pET30a NdeI/XhoI, stop codon); also called CA FL; full-length wild-type capsid protein; source: E. coli BL21(DE3), purified (ammonium sulfate cut, two rounds of polymerization/depolymerization, Q-HP flow-through); …
The test is described as follows: SPR; Biacore T100; minimally biotinylated WT CA or CA 4Mu hexamer captured on neutravidin on CM5 chips, CAI injected (100 µM and 3-fold dilutions); 50 mM sodium phosphate pH 7.5, 150 mM NaCl, 0.01% P20; steady-state one-site fit. The following applies: both partners purified. In general terms: In SPR one partner is held on a chip, and binding of the other changes the refractive index at the surface.

In test [2] the target is T1, wild-type HIV-1 capsid protein (WT CA). The test is described as follows: turbidity (absorbance at 350 nm) polymerization assay with inhibitor; 40 µM WT CA pre-incubated with inhibitor (2-fold serial dilution from 20 µM final for CAI-4), 50 mM sodium phosphate pH 7.5, 2 M NaCl, 0.005% Antifoam 204, 1% DMSO, 25°C; IC50 from initial rates. The following applies: both partners purified.

B1: CAI peptide (peptide)
peptide: ITFEDLLDYYGP
notes: source: synthetic peptide, bought: AnaSpec Inc
Molecule B1 had a dissociation constant (Kd) in test [1] of 1.38 µM.

B2: CAI-4 peptide (peptide)
peptide: ITFEDLLDYYK
notes: variant of CAI peptide with a lysine residue replacing the last two C-terminal amino acids; source: synthetic peptide, bought: AnaSpec Inc
As for B2, the IC50 in test [2] amounted to 4.7 ± 0.9 µM.
